# Test results published in patent publication US20150045540A1 (published 2015).
# B1: HC 6/SLC 9 (antibody)
# chain 1: GQGTLVTVSSASTKGPQPVLHQPPAMSSALGTTIRLTCTLRNDHDIGVYSVYWYQQRPGHPPRFLLRYFSQSDKSQGPQVPPRFSGSKDVARNRGYLSISELQPEDEAMYYCAMGARSRCWPRGFQSKHNSVTHVFGSGTQLTVLSQPKATPSVTLFPPSSEELQANKATLVCLMNDFYPGILTVTWKADGTPITQGVEMTTPSKQSNNKYAASSYLSLTPEQWRSRRSYSCQVMHEGSTVEKTVAPAECS
# chain 2: MSWAPVLLMLFVYCTGCGPQPVLHQPPAMSSALGTTIRLTCTLRNDHDIGVYSVYWYQQRPGHPPRFLLRYFSQSDKSQGPQVPPRFSGSKDVARNRGYLSISVTHVFGSGTQLTVLSQPKATPSVQVQLVQ
# B2: HC 7/SLC 8 (antibody)
# chain 1: GQGTLVTVSSASTKGPSQPVLHQPPAMSSALGTTIRLTCTLRNDHDIGVYSVYWYQQRPGHPPRFLLRYFSQSDKSQGPQVPPRFSGSKDVARNRGYLSISELQPEDEAMYYCAMGARSRCWPRGFQSKHNSVTHVFGSGTQLTVLSQPKATPSVTLFPPSSEELQANKATLVCLMNDFYPGILTVTWKADGTPITQGVEMTTPSKQSNNKYAASSYLSLTPEQWRSRRSYSCQVMHEGSTVEKTVAPAECS
# chain 2: MSWAPVLLMLFVYCTGCGPQPVLHQPPAMSSALGTTIRLTCTLRNDHDIGVYSVYWYQQRPGHPPRFLLRYFSQSDKSQGPQVPPRFSGSKDVARNRGYLSISVTHVFGSGTQLTVLSQPKATPSQVQLVQ
# B3: HC 5/SLC 3 (antibody)
# chain 1: GQGTLVTVSSASTKGQPVLHQPPAMSSALGTTIRLTCTLRNDHDIGVYSVYWYQQRPGHPPRFLLRYFSQSDKSQGPQVPPRFSGSKDVARNRGYLSISELQPEDEAMYYCAMGARSRCWPRGFQSKHNSVTHVFGSGTQLTVLSQPKATPSVTLFPPSSEELQANKATLVCLMNDFYPGILTVTWKADGTPITQGVEMTTPSKQSNNKYAASSYLSLTPEQWRSRRSYSCQVMHEGSTVEKTVAPAECS
# chain 2: MSWAPVLLMLFVYCTGCGPQPVLHQPPAMSSALGTTIRLTCTLRNDHDIGVYSVYWYQQRPGHPPRFLLRYFSQSDKSQGPQVPPRFSGSKDVARNRGYLSISVTHVFGSGTQLTVLSQPQVQLVQ
# B4: HC 4/SLC 5 (antibody)
# chain 1: GQGTLVTVSSASTKQPVLHQPPAMSSALGTTIRLTCTLRNDHDIGVYSVYWYQQRPGHPPRFLLRYFSQSDKSQGPQVPPRFSGSKDVARNRGYLSISELQPEDEAMYYCAMGARSRCWPRGFQSKHNSVTHVFGSGTQLTVLSQPKATPSVTLFPPSSEELQANKATLVCLMNDFYPGILTVTWKADGTPITQGVEMTTPSKQSNNKYAASSYLSLTPEQWRSRRSYSCQVMHEGSTVEKTVAPAECS
# chain 2: MSWAPVLLMLFVYCTGCGPQPVLHQPPAMSSALGTTIRLTCTLRNDHDIGVYSVYWYQQRPGHPPRFLLRYFSQSDKSQGPQVPPRFSGSKDVARNRGYLSISVTHVFGSGTQLTVLSQPKAQVQLVQ
# B5: HC 10/SLC 3 (antibody)
# chain 1: GQGTLVTVSSASTKGPSVFPQPVLHQPPAMSSALGTTIRLTCTLRNDHDIGVYSVYWYQQRPGHPPRFLLRYFSQSDKSQGPQVPPRFSGSKDVARNRGYLSISELQPEDEAMYYCAMGARSRCWPRGFQSKHNSVTHVFGSGTQLTVLSQPKATPSVTLFPPSSEELQANKATLVCLMNDFYPGILTVTWKADGTPITQGVEMTTPSKQSNNKYAASSYLSLTPEQWRSRRSYSCQVMHEGSTVEKTVAPAECS
# chain 2: B3 chain 2
# B6: HC 7/SLC 7 (antibody)
# chain 1: B2 chain 1
# chain 2: MSWAPVLLMLFVYCTGCGPQPVLHQPPAMSSALGTTIRLTCTLRNDHDIGVYSVYWYQQRPGHPPRFLLRYFSQSDKSQGPQVPPRFSGSKDVARNRGYLSISVTHVFGSGTQLTVLSQPKATPQVQLVQ
# B7: HC 9/SLC 15 (antibody)
# chain 1: GQGTLVTVSSASTKGPSVFQPVLHQPPAMSSALGTTIRLTCTLRNDHDIGVYSVYWYQQRPGHPPRFLLRYFSQSDKSQGPQVPPRFSGSKDVARNRGYLSISELQPEDEAMYYCAMGARSRCWPRGFQSKHNSVTHVFGSGTQLTVLSQPKATPSVTLFPPSSEELQANKATLVCLMNDFYPGILTVTWKADGTPITQGVEMTTPSKQSNNKYAASSYLSLTPEQWRSRRSYSCQVMHEGSTVEKTVAPAECS
# chain 2: MSWAPVLLMLFVYCTGCGPQPVLHQPPAMSSALGTTIRLTCTLRNDHDIGVYSVYWYQQRPGHPPRFLLRYFSQSDKSQGPQVPPRFSGSKDVARNRGYLSISVTHVFGSGTQLTVLSQPKATPSVTGGGGSQVQLVQ
# B8: HC 5/SLC 4 (antibody)
# chain 1: B3 chain 1
# chain 2: MSWAPVLLMLFVYCTGCGPQPVLHQPPAMSSALGTTIRLTCTLRNDHDIGVYSVYWYQQRPGHPPRFLLRYFSQSDKSQGPQVPPRFSGSKDVARNRGYLSISVTHVFGSGTQLTVLSQPKQVQLVQ
# B9: HC 9/SLC 2 (antibody)
# chain 1: B7 chain 1
# chain 2: MSWAPVLLMLFVYCTGCGPQPVLHQPPAMSSALGTTIRLTCTLRNDHDIGVYSVYWYQQRPGHPPRFLLRYFSQSDKSQGPQVPPRFSGSKDVARNRGYLSISVTHVFGSGTQLTVLSQQVQLVQ
# B10: HC 7/SLC 3 (antibody)
# chain 1: B2 chain 1
# chain 2: B3 chain 2
# B11: HC 5/SLC 5 (antibody)
# chain 1: B3 chain 1
# chain 2: B4 chain 2
# B12: HC 8/SLC 5 (antibody)
# chain 1: GQGTLVTVSSASTKGPSVQPVLHQPPAMSSALGTTIRLTCTLRNDHDIGVYSVYWYQQRPGHPPRFLLRYFSQSDKSQGPQVPPRFSGSKDVARNRGYLSISELQPEDEAMYYCAMGARSRCWPRGFQSKHNSVTHVFGSGTQLTVLSQPKATPSVTLFPPSSEELQANKATLVCLMNDFYPGILTVTWKADGTPITQGVEMTTPSKQSNNKYAASSYLSLTPEQWRSRRSYSCQVMHEGSTVEKTVAPAECS
# chain 2: B4 chain 2
# B13: HC 9/SLC 7 (antibody)
# chain 1: B7 chain 1
# chain 2: B6 chain 2
# B14: HC 8/SLC 2 (antibody)
# chain 1: B12 chain 1
# chain 2: B9 chain 2
# Key:
# [1] = target: T1, Placenta Growth Factor (PlGF), human (human, UniProt P49763 21-149); assay: ELISA
# T1 chain: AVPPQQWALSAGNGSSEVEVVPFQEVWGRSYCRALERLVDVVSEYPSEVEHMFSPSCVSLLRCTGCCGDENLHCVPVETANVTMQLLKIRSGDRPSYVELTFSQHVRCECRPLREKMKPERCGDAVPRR
# [2] = target: Hepatocyte Growth Factor (HGF), human (human, UniProt P14210 32-728); assay: ELISA
# Sequence of Hepatocyte Growth Factor (HGF), human (P14210 32-728): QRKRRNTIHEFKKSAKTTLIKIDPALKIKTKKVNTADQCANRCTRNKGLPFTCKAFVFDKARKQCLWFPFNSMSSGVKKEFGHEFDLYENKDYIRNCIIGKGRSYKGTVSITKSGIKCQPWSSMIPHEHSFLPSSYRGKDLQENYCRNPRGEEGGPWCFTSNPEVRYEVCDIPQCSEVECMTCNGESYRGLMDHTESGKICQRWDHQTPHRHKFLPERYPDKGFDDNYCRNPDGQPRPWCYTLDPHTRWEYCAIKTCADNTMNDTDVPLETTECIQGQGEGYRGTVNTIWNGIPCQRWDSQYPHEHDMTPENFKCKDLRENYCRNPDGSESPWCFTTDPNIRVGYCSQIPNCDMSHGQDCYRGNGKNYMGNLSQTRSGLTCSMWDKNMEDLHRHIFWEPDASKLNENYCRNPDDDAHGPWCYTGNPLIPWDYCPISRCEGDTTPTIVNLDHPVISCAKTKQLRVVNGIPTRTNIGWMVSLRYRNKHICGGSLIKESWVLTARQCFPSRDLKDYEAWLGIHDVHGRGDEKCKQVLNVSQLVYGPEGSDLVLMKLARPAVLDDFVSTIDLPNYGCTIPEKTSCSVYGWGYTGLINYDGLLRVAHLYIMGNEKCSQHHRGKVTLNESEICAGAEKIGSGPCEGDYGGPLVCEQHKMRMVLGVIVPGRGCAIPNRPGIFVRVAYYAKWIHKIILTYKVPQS
EC50 [1] [nM],EC50 [2] [nM],Binder
0.053,0.047,B1
0.095,0.056,B2
0.181,0.064,B3
0.282,0.059,B4
0.121,0.074,B5
0.106,0.056,B6
0.047,0.049,B7
0.207,0.065,B8
0.211,0.062,B9
0.182,0.067,B10
0.256,0.063,B11
0.289,0.063,B12
0.063,0.059,B13
0.227,0.059,B14
